Assay results as given in PMC2824606.

Target: yHsp90-Y24F, bacterially expressed and purified (N-terminally His6-tagged, pRSETA) (Saccharomyces cerevisiae) (UniProt P02829)
Test: ITC

Kd: 1.8 µM
Substance: Aha1 used for the in vitro binding constants (from UniProt Q12449 1-350) (natural protein)
